# Experimental data: the RNAGym collection of RNA variant scans (doi:10.1093/molbev/msab373)
# B1: Azoarcus group I ribozyme (parent)
# chain: GUGCCUUGCGCCGGGAAACCACGCAAGGGAUGGUGUCAAAUUCGGCGAAACCUAAGCGCCCGCCCGGGCGUAUGGCAACGCCGAGCCAAGCUUCGGCGCCUGCGCCGAUGAAGGUGUAGAGACUAGACGGCACCCACCUAAGGCAAACGCUAUGGUGAAGGCAUAGUCCAGGGAGUGGCGAAAGUCACACAAACCGG
# Variants of: B1
# Experiment: reverse-splicing fitness (ratio to wild type); higher = more active; in vitro selection; Mg2+ level not given
# How it was run: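 An in vitro group I ribozyme library with randomized positions was T7-transcribed and gel-purified. In triplicate, 10 pmol RNA in EPPS pH 7.5 was reacted with 50 pmoles of a 30-nt RNA substrate for 1 h at 37 °C across several added MgCl2 levels (1–48 mM), then stopped with EDTA. Products were reverse transcribed from a substrate-complementary primer, PCR-amplified and sequenced (HiSeq 4000). Fitness is a variant's read proportion after selection over that before, normalised to wild type.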
row,Variant,reverse-splicing fitness
1,GUGCCUUGCGCCGGGAAACCACGCAAGGGAUGGUGUCAAAUUCGGCGAAACCUAAGCGCCCGCCCGGGCGUAUGGCAACGCGGAGCCAAGCUUCGGCGCCUGCGCCGAUGCAGGUGUAGGGACUAGACGGCACCCACCUAAGGCUAACGUUAUGGUGAAGGCAUAGUCGAGGGAGUGGCGAAAGUCACACAAACCGG [C82G A111C A120G A145U C150U C169G],0.0113
2,GUGCCUUGCGCCGGGAAACCACGCAAGGGAUGGUGUCAAAUUCGGCGAAACCUAAGCGCCCGCCCGGGCGUAUGGCAACGCGGAGCCAAGCUUCGGCGCCUGCGCCGAUGCAGGUGUAGGGACUAGACGGCACCCACCUAAGGCUAACGUUAUGGUGAAGGCAUAGUCAAGGGAGUGGCGAAAGUCACACAAACCGG [C82G A111C A120G A145U C150U C169A],0.0101
3,GUGCCUUGCGCCGGGAAACCACGCAAGGGAUGGUGUCAAAUUCGGCGAAACCUAAGCGCCCGCCCGGGCGUAUGGCAACGCGGAGCCAAGCUUCGGCGCCUGCGCCGAUGCAGGUGUAGGGACUAGACGGCACCCACCUAAGGCUAACGGUAUGGUGAAGGCAUAGUCUAGGGAGAGGCGAAAGUCACACAAACCGG [C82G A111C A120G A145U C150G C169U U176A],0.00847
4,GUGCCUUGCGCCGGGAAACCACGCAAGGGAUGGUGUCAAAUUCGGCGAAACCUAAGCGCCCGCCCGGGCGUAUGGCAACGCGGAGCCAAGCUUCGGCGCCUGCGCCGAUGCAGGUGUAGGGACUAGACGGCACCCACCUAAGGCUAACGGUAUGGUGAAGGCAUAGUCUAGGGAGCGGCGAAAGUCACACAAACCGG [C82G A111C A120G A145U C150G C169U U176C],0.0118
5,GUGCCUUGCGCCGGGAAACCACGCAAGGGAUGGUGUCAAAUUCGGCGAAACCUAAGCGCCCGCCCGGGCGUAUGGCAACGCGGAGCCAAGCUUCGGCGCCUGCGCCGAUGCAGGUGUAGGGACUAGACGGCACCCACCUAAGGCUAACGGUAUGGUGAAGGCAUAGUCUAGGGAGGGGCGAAAGUCACACAAACCGG [C82G A111C A120G A145U C150G C169U U176G],0.00536
6,GUGCCUUGCGCCGGGAAACCACGCAAGGGAUGGUGUCAAAUUCGGCGAAACCUAAGCGCCCGCCCGGGCGUAUGGCAACGCGGAGCCAAGCUUCGGCGCCUGCGCCGAUGCAGGUGUAGGGACUAGACGGCACCCACCUAAGGCUAACGUUAUGGUGAAGGCAUAGUCAAGGGAGGGGCGAAAGUCACACAAACCGG [C82G A111C A120G A145U C150U C169A U176G],0.006
7,GUGCCUUGCGCCGGGAAACCACGCAAGGGAUGGUGUCAAAUUCGGCGAAACCUAAGCGCCCGCCCGGGCGUAUGGCAACGCGGAGCCAAGCUUCGGCGCCUGCGCCGAUGCAGGUGUAGGGACUAGACGGCACCCACCUAAGGCUAACGUUAUGGUGAAGGCAUAGUCAAGGGAGAGGCGAAAGUCACACAAACCGG [C82G A111C A120G A145U C150U C169A U176A],0.0109
8,GUGCCUUGCGCCGGGAAACCACGCAAGGGAUGGUGUCAAAUUCGGCGAAACCUAAGCGCCCGCCCGGGCGUAUGGCAACGCGGAGCCAAGCUUCGGCGCCUGCGCCGAUGCAGGUGUAGGGACUAGACGGCACCCACCUAAGGCUAACGUUAUGGUGAAGGCAUAGUCAAGGGAGCGGCGAAAGUCACACAAACCGG [C82G A111C A120G A145U C150U C169A U176C],0.0109
9,GUGCCUUGCGCCGGGAAACCACGCAAGGGAUGGUGUCAAAUUCGGCGAAACCUAAGCGCCCGCCCGGGCGUAUGGCAACGCGGAGCCAAGCUUCGGCGCCUGCGCCGAUGCAGGUGUAGGGACUAGACGGCACCCACCUAAGGCUAACGGUAUGGUGAAGGCAUAGUCUAGGGAGUGGCGAAAGUCACACAAACCGG [C82G A111C A120G A145U C150G C169U],0.0085
10,GUGCCUUGCGCCGGGAAACCACGCAAGGGAUGGUGUCAAAUUCGGCGAAACCUAAGCGCCCGCCCGGGCGUAUGGCAACGCGGAGCCAAGCUUCGGCGCCUGCGCCGAUGCAGGUGUAGGGACUAGACGGCACCCACCUAAGGCUAACGGUAUGGUGAAGGCAUAGUCCAGGGAGAGGCGAAAGUCACACAAACCGG [C82G A111C A120G A145U C150G U176A],0.00814
11,GUGCCUUGCGCCGGGAAACCACGCAAGGGAUGGUGUCAAAUUCGGCGAAACCUAAGCGCCCGCCCGGGCGUAUGGCAACGCGGAGCCAAGCUUCGGCGCCUGCGCCGAUGCAGGUGUAGGGACUAGACGGCACCCACCUAAGGCUAACGGUAUGGUGAAGGCAUAGUCCAGGGAGGGGCGAAAGUCACACAAACCGG [C82G A111C A120G A145U C150G U176G],0.00375
12,GUGCCUUGCGCCGGGAAACCACGCAAGGGAUGGUGUCAAAUUCGGCGAAACCUAAGCGCCCGCCCGGGCGUAUGGCAACGCGGAGCCAAGCUUCGGCGCCUGCGCCGAUGCAGGUGUAGGGACUAGACGGCACCCACCUAAGGCUAACGGUAUGGUGAAGGCAUAGUCCAGGGAGCGGCGAAAGUCACACAAACCGG [C82G A111C A120G A145U C150G U176C],0.015
13,GUGCCUUGCGCCGGGAAACCACGCAAGGGAUGGUGUCAAAUUCGGCGAAACCUAAGCGCCCGCCCGGGCGUAUGGCAACGCGGAGCCAAGCUUCGGCGCCUGCGCCGAUGCAGGUGUAGGGACUAGACGGCACCCACCUAAGGCUAACGGUAUGGUGAAGGCAUAGUCGAGGGAGCGGCGAAAGUCACACAAACCGG [C82G A111C A120G A145U C150G C169G U176C],0.00521
14,GUGCCUUGCGCCGGGAAACCACGCAAGGGAUGGUGUCAAAUUCGGCGAAACCUAAGCGCCCGCCCGGGCGUAUGGCAACGCGGAGCCAAGCUUCGGCGCCUGCGCCGAUGCAGGUGUAGGGACUAGACGGCACCCACCUAAGGCUAACGGUAUGGUGAAGGCAUAGUCGAGGGAGGGGCGAAAGUCACACAAACCGG [C82G A111C A120G A145U C150G C169G U176G],0.00512
15,GUGCCUUGCGCCGGGAAACCACGCAAGGGAUGGUGUCAAAUUCGGCGAAACCUAAGCGCCCGCCCGGGCGUAUGGCAACGCGGAGCCAAGCUUCGGCGCCUGCGCCGAUGCAGGUGUAGGGACUAGACGGCACCCACCUAAGGCUAACGUUAUGGUGAAGGCAUAGUCCAGGGAGUGGCGAAAGUCACACAAACCGG [C82G A111C A120G A145U C150U],0.0124
